Results reported in PMC10311840, “Purification and characterization of inorganic pyrophosphatase for in vitro RNA transcription” (Biochemistry and cell biology = Biochimie et biologie …, 2022).
Several values for one entry are separate records, joined by “and”; a condition that tells them apart may be missing. Identical values can stand only once.

Key:
[1] = biological target: the molecule itself; test: SEC-MALS; SEC-MALS-DLS; Superdex 200 Increase 10/300 GL; 355 umol/L affinity-purified iPPase injected in 500 uL; 25 C; 80 mmol/L Tris-HCl pH 7.5, 30 mmol/L MgCl2, 4 mmol/L spermidine, 20 mmol/L NaCl, 4 mmol/L DTT; self-association, dimer, tetramer and hexamer peaks
[2] = biological target: the molecule itself; test: SEC-SAXS; HPLC-SAXS at Diamond B21; 50 uL of 450 umol/L iPPase on Superdex 200 Increase 3.2/300 GL; dimer and tetramer peaks analysed, hexamer peak not usable; self-association

B1: yeast inorganic pyrophosphatase (enzyme)
chain: TYTTRQIGAKNTLEYKVYIEKDGKPVSAFHDIPLYADKENNIFNMVVEIPRWTNAKLEITKEETLNPIIQDTKKGKLRFVRNCFPHHGYIHNYGAFPQTWEDPNVSHPETKAVGDNDPIDVLEIGETIAYTGQVKQVKALGIMALLDEGETDWKVIAIDINDPLAPKLNDIEDVEKYFPGLLRATNEWFRIYKIPDGKPENQFAFSGEAKNKKYALDIIKETHDSWKQLIAGKSSDSKGIDLTNVTLPDTPTYSKAASDAIPPASPKADAPIDKSIDKWFFISGSV
notes: inorganic pyrophosphatase, product of the yeast gene IPP1, family 1 iPPase (EC 3.6.1.1); expressed from plasmid pET29b-IPP1-His; no cleavage is described; also called iPPase; yeast iPPase
For B1, the “stoichiometry N” value [1] was 2 and 6 and the “stoichiometry N” value [2] was 4.
